Where a SMILES comes first, the peptide text is derived from it. [ ]: non-standard residue; d: D form. The star is where a group is joined. Piperazinyl(4-RhodamineB) = CCN(CC)c1ccc2c(-c3ccccc3C(=O)N3CCN(*)CC3)c3ccc(=[N+](CC)CC)cc-3oc2c1; X1 = CC(C)CCC[C@@H](C)[C@H]1CCC2C3CCC4C[C@@H](O*)CC[C@]4(C)C3CC[C@@]21C; Sta = CC(C)C[C@H](N)[C@@H](O)CC(=O)O; βAla = NCCC(=O)O
Assay: Qualitative solubility assessment in an aqueous medium
Type: physicochemical

Structure (SMILES): CCN(CC)c1ccc2c(-c3ccccc3C(=O)N3CCN(C(=O)CC[C@H](N)C(=O)NCCC(=O)NCC(=O)N[C@@H](CCC(=O)O)C(=O)N[C@H](C(=O)N[C@@H](CC(N)=O)C(=O)N[C@@H](CC(C)C)[C@@H](O)CC(=O)N[C@H](C(=O)N[C@@H](C)C(=O)N[C@@H](CCC(=O)O)C(=O)N[C@@H](Cc4ccccc4)C(=O)N[C@@H](CCCNC(=N)N)C(=O)N[C@@H](Cc4c[nH]cn4)C(=O)N[C@@H](CC(=O)O)C(=O)N[C@@H](CO)C(=O)NCC(=O)N[C@@H](Cc4ccc(O)cc4)C(=O)N[C@@H](CCC(=O)O)C(=O)N[C@H](C(=O)N[C@@H](Cc4c[nH]cn4)C(=O)N[C@@H](Cc4c[nH]cn4)C(=O)N[C@@H](CCC(N)=O)C(=O)N[C@@H](CCCCN)C(=O)N[C@@H](CC(C)C)C(=O)N[C@H](C(=O)N[C@@H](Cc4ccccc4)C(=O)N[C@@H](Cc4ccccc4)C(=O)N[C@@H](C)C(=O)N[C@@H](CCC(=O)O)C(=O)N[C@@H](CC(=O)O)C(=O)N[C@H](C(=O)NCC(=O)N[C@@H](CO)C(=O)N[C@@H](CC(N)=O)C(=O)N[C@@H](CCCCN)C(=O)N[C@@H](CC(=O)O[C@H]4CC[C@@]5(C)C(CCC6C5CC[C@@]5(C)C6CC[C@@H]5[C@H](C)CCCC(C)C)C4)C(N)=O)C(C)C)C(C)C)C(C)C)C(C)C)C(C)C)CC3)c3ccc(=[N+](CC)CC)cc-3oc2c1 (stereo partly shown) [compound 24b] (H-E(Piperazinyl(4-RhodamineB))[βAla]GEVN[Sta]VAEFRHDSGYEVHHQKLVFFAEDVGSNKD(X1)-NH2)
- solubility in an aqueous medium (qualitative comparison of 24b and 25b): higher solubility

Source: US20080317767A1, “Tripartitle Raftophilic Strutures and their Use” (priority 2004, published 2008)
